Measured values published in publication PMC314469, “Protein Interaction Networks by Proteome Peptide Scanning” (PLoS Biology, 2004).
One block for each binder: values may come before it.

Legend:
Experiment in all cases: SPOT array
[1] = target: T1, Yfr024 SH3 (LSB3_YEAST), P43603
T1 chain: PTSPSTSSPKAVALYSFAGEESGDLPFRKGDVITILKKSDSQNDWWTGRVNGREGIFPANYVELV

[2] = target: T2, Yhr016c SH3 (YSC84_YEAST), P32793
T2 chain: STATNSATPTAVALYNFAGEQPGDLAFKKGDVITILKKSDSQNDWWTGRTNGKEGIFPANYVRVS

[3] = target: T3, Rvs167 SH3 (RV167_YEAST), P39743
T3 chain: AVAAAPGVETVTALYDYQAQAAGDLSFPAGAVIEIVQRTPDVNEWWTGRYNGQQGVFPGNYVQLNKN

[4] = target: T4, Boi2 SH3 (BOI2_YEAST), P39969
T4 chain: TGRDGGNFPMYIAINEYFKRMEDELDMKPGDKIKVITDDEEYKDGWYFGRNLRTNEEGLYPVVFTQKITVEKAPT

[5] = target: T5, Boi1 SH3 (BOI1_YEAST), P38041
T5 chain: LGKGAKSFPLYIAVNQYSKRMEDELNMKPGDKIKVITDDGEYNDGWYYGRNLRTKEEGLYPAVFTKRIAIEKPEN

normalised SPOT signal, Boehringer light units (BLU); mean over the file's lines of this peptide [1]: 5890 | normalised SPOT signal, Boehringer light units (BLU); mean over the file's lines of this peptide [2]: 364 | normalised SPOT signal, Boehringer light units (BLU); mean over the file's lines of this peptide [3]: 168 | normalised SPOT signal, Boehringer light units (BLU); mean over the file's lines of this peptide [4]: 227 | normalised SPOT signal, Boehringer light units (BLU); mean over the file's lines of this peptide [5]: 85.4
B1: YJL093C 636-649 (peptide)
chain: WISPDTPLKFPLNE

normalised SPOT signal, Boehringer light units (BLU); mean over the file's lines of this peptide [1]: 3360 | normalised SPOT signal, Boehringer light units (BLU); mean over the file's lines of this peptide [2]: 230 | normalised SPOT signal, Boehringer light units (BLU); mean over the file's lines of this peptide [3]: 50.5 | normalised SPOT signal, Boehringer light units (BLU); mean over the file's lines of this peptide [4]: 69.6 | normalised SPOT signal, Boehringer light units (BLU); mean over the file's lines of this peptide [5]: 0
B2: YBR040W 181-194 (peptide)
chain: VTVPKLPFKLAVNK

normalised SPOT signal, Boehringer light units (BLU); mean over the file's lines of this peptide [1]: 70.5 | normalised SPOT signal, Boehringer light units (BLU); mean over the file's lines of this peptide [2]: 173 | normalised SPOT signal, Boehringer light units (BLU); mean over the file's lines of this peptide [3]: 55.9 | normalised SPOT signal, Boehringer light units (BLU); mean over the file's lines of this peptide [4]: 50.3 | normalised SPOT signal, Boehringer light units (BLU); mean over the file's lines of this peptide [5]: 59.7
B3: YIL146C 146-159 (peptide)
chain: VVSPSHPFKQLQKI

normalised SPOT signal, Boehringer light units (BLU); mean over the file's lines of this peptide [1]: 2650 | normalised SPOT signal, Boehringer light units (BLU); mean over the file's lines of this peptide [2]: 128 | normalised SPOT signal, Boehringer light units (BLU); mean over the file's lines of this peptide [3]: 56.8 | normalised SPOT signal, Boehringer light units (BLU); mean over the file's lines of this peptide [4]: 90 | normalised SPOT signal, Boehringer light units (BLU); mean over the file's lines of this peptide [5]: 442
B4: YNL230C 264-277 (peptide)
chain: VTQPITPVKKRRSE

normalised SPOT signal, Boehringer light units (BLU); mean over the file's lines of this peptide [1]: 298 | normalised SPOT signal, Boehringer light units (BLU); mean over the file's lines of this peptide [2]: 132 | normalised SPOT signal, Boehringer light units (BLU); mean over the file's lines of this peptide [3]: 17.1 | normalised SPOT signal, Boehringer light units (BLU); mean over the file's lines of this peptide [4]: 17.4 | normalised SPOT signal, Boehringer light units (BLU); mean over the file's lines of this peptide [5]: 32.4
B5: YJL060W 164-177 (peptide)
chain: VYVPINPPKELDQR

normalised SPOT signal, Boehringer light units (BLU); mean over the file's lines of this peptide [1]: 4480 | normalised SPOT signal, Boehringer light units (BLU); mean over the file's lines of this peptide [2]: 3610 | normalised SPOT signal, Boehringer light units (BLU); mean over the file's lines of this peptide [3]: 1860 | normalised SPOT signal, Boehringer light units (BLU); mean over the file's lines of this peptide [4]: 0 | normalised SPOT signal, Boehringer light units (BLU); mean over the file's lines of this peptide [5]: 50.6
B6: YDL117W 95-108 (peptide)
chain: VVIPPVPSRYSDER

normalised SPOT signal, Boehringer light units (BLU); mean over the file's lines of this peptide [1]: 533 | normalised SPOT signal, Boehringer light units (BLU); mean over the file's lines of this peptide [2]: 168 | normalised SPOT signal, Boehringer light units (BLU); mean over the file's lines of this peptide [3]: 22.6 | normalised SPOT signal, Boehringer light units (BLU); mean over the file's lines of this peptide [4]: 34 | normalised SPOT signal, Boehringer light units (BLU); mean over the file's lines of this peptide [5]: 94.3
B7: YLR215C 239-252 (peptide)
chain: VVLPKFPDKSFVLD

normalised SPOT signal, Boehringer light units (BLU); mean over the file's lines of this peptide [1]: 1890 | normalised SPOT signal, Boehringer light units (BLU); mean over the file's lines of this peptide [2]: 364 | normalised SPOT signal, Boehringer light units (BLU); mean over the file's lines of this peptide [3]: 17.7 | normalised SPOT signal, Boehringer light units (BLU); mean over the file's lines of this peptide [4]: 20.4 | normalised SPOT signal, Boehringer light units (BLU); mean over the file's lines of this peptide [5]: 122
B8: YJR083C 47-60 (peptide)
chain: VTTPLKPKRLAIPI

normalised SPOT signal, Boehringer light units (BLU); mean over the file's lines of this peptide [1]: 13300 | normalised SPOT signal, Boehringer light units (BLU); mean over the file's lines of this peptide [2]: 2250 | normalised SPOT signal, Boehringer light units (BLU); mean over the file's lines of this peptide [3]: 580 | normalised SPOT signal, Boehringer light units (BLU); mean over the file's lines of this peptide [4]: 1180 | normalised SPOT signal, Boehringer light units (BLU); mean over the file's lines of this peptide [5]: 571
B9: YLR228C 72-85 (peptide)
chain: VYSPIQPRRRKDSS
